Our source for the remaining activity after mixed with streptavidin and activity maintained upon binding to streptavidin values is patent publication US5843746.

Assay [1] concerns the target biotinated firefly luciferase bL203 (Luciola lateralis (HEIKE firefly) luciferase fused to an artificial peptide).
Assay [2] has as its target chemically modified biotinated firefly luciferase (Photinus pyralis) [luciferase: P08659].
Assay [3] deals with biotinated firefly luciferase bL248 (Luciola lateralis (HEIKE firefly) luciferase fused to a part of E. coli BCCP).

Consider streptavidin (from UniProt P22629), for which the remaining activity after mixed with streptavidin in assay [1] was found to be 93%; in assay [2], 62%. The activity maintained upon binding to streptavidin in assay [3] came to 102%.
